Source: patent US20030166537A1, “Use of GDNF for treating corneal defects” (Biopharm Gesellschaft Zur Biotechnologischen Entwicklung …, priority 1999, published 2003)

Columns and labels:
[1] = system: corneal epithelial cells; assay: in vitro wound healing model with herbimycin A; assay type: cell-based; conditions: 250 ng/ml GDNF alone; 18 hours
Protocol: (§1) For in vitro wound healing assays primary corneal epithelial cells and cells from the corneal epithelial cell line were seeded at a density of 5×10^5 onto 60 mm plastic dishes with 2 mm grid (Sarstedt, Numbrecht, Germany) and cultured for 2 days until subconfluency. For experiments with artemin primary cultured rabbit corneal epithelial cells were used. These cells had been isolated with Dispase (1,2 U/ml) and trypsin/EDTA. Rabbit cells had been cultured in medium 500 with additives (Cascade Biologies).
The cell layer was injured under the microscope by inducing several parallel scratches with a soft plastic cell scrubber (Falcon, Becton and Dickinson, Heidelberg, Germany). The tip of the scrubber was cut and measured about 1 mm and consequently the width of the scratch in the cell layer was also about 1 mm. Selected areas in the dishes were marked with a very fine marker pen and consecutive images were taken at different time points at 5×magnification under an inverted phase contrast microscope (Axiovert 25, Zeiss, Jena, Germany) equipped with a video camera. […] For each condition four representative areas were evaluated within three dishes. […] 18 hours later the mean diameter of the same scratch was calculated again and expressed in percent of the diameter at the beginning of the experiment. […]

[2] = system: primary human corneal epithelial cells; assay: in vitro wound healing assay (scratch wound), primary cells; assay type: cell-based; conditions: 250 ng/ml; 18 h; control less than 10%
Protocol: as §1
(§2) The cell layer was injured under the microscope by inducing several parallel scratches with a soft plastic cell scrubber (Falcon, Becton and Dickinson, Heidelberg, Germany). The tip of the scrubber was cut and measured about 1 mm and consequently the width of the scratch in the cell layer was also about 1 mm. Selected areas in the dishes were marked with a very fine marker pen and consecutive images were taken at different time points at 5×magnification under an inverted phase contrast microscope (Axiovert 25, Zeiss, Jena, Germany) equipped with a video camera. Following the experimental injury dishes were incubated in SHEM medium either containing no growth factors (control) or containing either GDNF (250 ng/ml) (recombinant human GDNF expressed in E. coli), NGF (250 ng/ml) (Boehringer Mannheim, Germany) or EGF ([…]). For experiments investigating artemin cells were cultured in medium 500 without additives and 250 ng artemin was added. For each condition four representative areas were evaluated within three dishes. The mean diameter of the scratch in each representative area was set as 100% at the beginning of the experiment. 18 hours later the mean diameter of the same scratch was calculated again and expressed in percent of the diameter at the beginning of the experiment.

[3] = system: corneal epithelial cells from the SV40 transformed cell line; assay: in vitro wound healing assay (scratch wound), cell line; assay type: cell-based, human; conditions: 250 ng/ml; 18 h; control 20%±4.5
Protocol: as §1, §2

[4] = system: primary rabbit corneal epithelial cells; assay: single cell clonal growth assay (colony formation, clonal proliferation); assay type: cell-based; conditions: D6
Excerpt: In order to evaluate the effect of GDNF on corneal proliferation, recombinant human GDNF was used (R&D, Minneapolis, Minn., USA). For the evaluation of the effect on corneal epithelial proliferaton a single cell clonal growth model was utilized which allows to determine the effect of the given growth factor on both colony formation as well as clonal expansion (Kruse et al., 1991). New Zealand white rabbits were housed and treated according to the ARVO Resolution of Animals in Research and under observation of German Federal Laws and the laws of the State of Baden-Württemberg. Prior to sacrifice with an intravenous overdose of pentobarbital, they received an intramuscular injection of xylazine hydrochloride and ketamine hydrochloride. The details of the clonal growth assay are described in Kruse et al. (1991). 5000 viable cells were seeded in each 16 mm dish in serum-free medium MCDB 151 with a supplement (S) of insulin (5 μg/ml), transferrin (5 μg/ml), selenium (5 ng/ml) and hydrocortisone (5 μg/ml) (all from Sigma, Deisenhofen, Germany). […] This quantification was facilitated by the use of dishes which contained a grit on the bottom which is roughly 2 mm wide (from Sarstedt, Newton, N.C., USA). For data collection the entire surface area of four randomly selected dishes for each condition was screened. Furthermore, the number of cells per colony was determined in 75 randomly selected colonies for each condition. Furthermore, the total number of cells/dish was calculated in order to carry out an evaluation for artemin. In order to stimulate the cellular proliferation, GDNF (50 or 200 ng/ml) or artemin (250 ng/ml) was added to the medium. In order to estimate the rate of proliferation after 12 days (a time when neighbouring colonies started to grow into each other and, therefore, prevented numerical quantification) dishes were fixed in −20° C. methanol and stained with methylene blue.
All experiments examining the effect of GDNF on corneal proliferation were performed in triplicate with cells from different donors. The influence of growth factor on colony formation, colony size and cell number was studied using one-way analysis of variance. […] Student's t-test was employed to determine which differences were significant after analysis of variance.

[5] = system: primary human corneal stromal cells; assay: proliferation of cultured stromal keratocytes (cell counting, Cell Titer 96 AQueous assay); assay type: cell-based; conditions: 20 or 100 ng/ml; serum-free medium; D6; p<0.005
Protocol: In order to investigate the effect of GDNF on the proliferation of cultured stromal keratocytes the cells were passaged from DMEM +10% FBS into DMEM +1% FBS or into DMEM without FBS at a density of 5×10^4 cells/60 mm dish. Some cultures received recombinant human GDNF at the above-mentioned concentrations. Proliferation was measured after 6 days by counting cells under the phase contrast microscope (50 fields at 100×magnification per condition) as well as trypsinized cells. Also a Cell Titer 96 AQueous One Solution proliferation assay (Promega) was performed according to the manufacturess description. For this calorimetric assay 500 or 1000 cells were grown for 6 days in 96-well-plates (Falcon). Upon addition to the culture well a titrazolium dye is bioreduced by cells into a colored formazan product and the absorbance is quantified at 490 nm. The quantity of the formazan product is proportional to the number of living cells in the well and can therefore serve to estimate proliferation.

[6] = system: corneal ulcer; assay: topical therapy of corneal ulcer in a human patient; assay type: in vivo; conditions: one patient
Protocol: […] Corneal ulcer accompanied by massive inflammation on the left. Epithelial defect of 3.8×3.0 mm in size, furthermore ulcus of corneal stroma in form of a punched-out defect comprising 80% of the thickness of the cornea. No pain sensation of the cornea and significant accompanying inflammation of the eye. The patient was treated with recombinant human (rh) GNDF (0.2 mg/ml) (25 μl/dose) in 2 hours intervals for 48 hours, then the doses were reduced to 20 μl 6 times per day. After healing of the epithelium the concentration was reduced to 0.1 mg/ml, and 20 μl doses were given 5 times per day. For adminstration, lyophilized recombinant human GDNF was diluted in sterile balanced salt solution (Alcon, Freiburg Germany).

[7] = rhGDNF 0.2 mg/ml eye drops, topical

B1: GDNF: recombinant human GDNF having the amino acid sequence of human wild-type GDNF (GenBank L19063, L15306) (protein)
chain: SPDKQMAVLPRRERNRQAAAANPENSRGKGRRGQRGKNRGCVLTAIHLNVTDLGLGYETKEELIFRYCSGSCDAAETTYDKILKNLSRNRRLVSDKVGQACCRPIAFDDDLSFLDDNLVYHILRKHSAKRCGCI
With B1 the “wound gap filled with cells” value [1] was 37.9±8.1%, the “gap in the cell monolayer filled” value [2] was 16.5±6% and the “gap in the cell monolayer filled” value [3] was 30%±6.9. For the same molecule, the “numbers of colonies per dish” value ([4]; GDNF 50 ng (p<0,05) and 200 ng (p<0.0001), serum-free MCDB) was “increased significantly”, the “clonal proliferation (number of cells within each colony)” value ([4]; GDNF 50 and 200 ng/ml, p<0.01) was “significantly stimulated” and the “proliferation of stromal keratocytes” value [5] was “significantly enhanced”. For the same molecule, the “start of wound healing” value [6, 7] was 2 days, the “time to complete wound healing of the epithelium” value [6, 7] was 3 weeks and the “inflammation and subjective afflictions after healing of the epithelium” value ([6]; rhGDNF topical) was “significant reduction”. For the same molecule, the “thickness of the stroma” value ([6]; rhGDNF topical) was “continuous increase”.
